The supplement of paper PMC6757056
± gives the standard deviation of the averaged measurements.

B1: library; a variant is named by its letters at N, in order (parent)
chain: GCUGUCACCGAGAAACUGUGAAGUAUAUCUUAAACCUGGGCACUUAAAAGAUAUAUGGAGUUAGUAGUGCAACCUGCUCGGUCUGAUGAGUCCNNNNNNGGACGAAACAGC

Legend:
cyclic di-GMP [1] = variants of: B1; assay: FACS-Seq fitted mean relative fluorescence mCherry/BFP without ligand (log10 relative fluorescence); HEK293T; ligand: cyclic di-GMP (c-di-GMP-II aptamer); higher = higher reporter protein expression; settings: ligand present: no
Summary of the method: (§1)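 Enriched HEK293T cells carrying, by lentivirus, an mCherry reporter with the ribozyme switch and an EF1α-BFP marker spent 48 h with or without ligand and were sorted into 6 bins by mCherry/BFP. MiSeq sequencing of PCR-amplified bin genomic DNA gave bin counts. Fluorescence was calculated as the fitted normal mean of those counts. Counts were binned on log10(mCherry/BFP), and means were scaled to five spiked-in control ribozymes.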

cyclic di-GMP [2] = variants of: B1; assay: normalized RNA/DNA level without ligand (relative to sTRSVctl = 100) (log10 (% of sTRSVctl)); HEK293T; ligand: cyclic di-GMP (c-di-GMP-II aptamer); higher = less ribozyme self-cleavage, higher mRNA level; settings: reporter: mCherry (pCS4076), ligand present: no
Summary of the method: (§2)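 HEK293T cells received ligand, where used, 1 h before being transfected with 4 µg per 6-well well of library plasmids encoding reporter-linked ribozyme switches. After 72 h, RNA was extracted with EDTA and sequenced. RNA level was derived from RNA reads per DNA read, normalized to a spiked-in non-cleaving sequence or the top sequences, then scaled and log-transformed. Values were ×100 then log10, the top set was 25 sequences, and the minimum was 100 DNA reads.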

cyclic di-GMP [3] = variants of: B1; assay: FACS-Seq fitted mean relative fluorescence mCherry/BFP with ligand (log10 relative fluorescence); HEK293T; ligand: cyclic di-GMP (c-di-GMP-II aptamer); ligand concentration (+) FACS-Seq: 1 mM; higher = higher reporter protein expression; settings: ligand present: yes
Summary of the method: as §1

cyclic di-GMP [4] = variants of: B1; assay: normalized RNA/DNA level with ligand (relative to sTRSVctl = 100) (log10 (% of sTRSVctl)); HEK293T; ligand: cyclic di-GMP (c-di-GMP-II aptamer); ligand concentration (+) RNA-Seq: 1 mM; higher = less ribozyme self-cleavage, higher mRNA level; settings: reporter: mCherry (pCS4076), ligand present: yes
Summary of the method: as §2

Row | Variant | FACS-Seq fitted mean (log10) (cyclic di-GMP [1]) | normalized RNA/DNA level without ligand (log10) (cyclic di-GMP [2]) | FACS-Seq fitted mean (log10) (cyclic di-GMP [3]) | normalized RNA/DNA level with ligand (log10) (cyclic di-GMP [4])
1 | ACCCGC | -0.436 ± 0.15 | 1.75 ± 0.018 | -0.0881 ± 0.013 | 1.85 ± 0.099
2 | ACGCAG | -0.51 ± 0.13 | 1.677 ± 0.0051 | -0.377 ± 0.0065 | 1.81 ± 0.094
3 | UCCUCC | -0.766 ± 0.014 | 1.81 ± 0.047 | -0.515 ± 0.021 | 1.91 ± 0.17
4 | UCCUCG | 0.369 ± 0.066 | 1.797 ± 0.0034 | 0.448 ± 0.0052 | 1.91 ± 0.074
5 | ACCCAC | 0.134 ± 0.14 | 1.69 ± 0.029 | 0.321 ± 0.024 | 1.84 ± 0.15
6 | ACGAAG | -0.359 ± 0.056 | 1.42 ± 0.13 | 0.0516 ± 0.11 | 1.63 ± 0.088
7 | ACGAAA | -0.618 ± 0.032 | 1.35 ± 0.1 | -0.313 ± 0.013 | 1.52 ± 0.11
8 | GCGACG | -0.315 ± 0.099 | 1.55 ± 0.096 | -0.216 ± 0.13 | 1.73 ± 0.076
9 | CCGCCA | -0.184 ± 0.045 | 1.645 ± 0.0073 | 0.127 ± 0.058 | 1.85 ± 0.14
10 | ACGCUC | -0.914 ± 0.014 | 1.67 ± 0.02 | -0.852 ± 0.057 | 1.82 ± 0.16
11 | CCCCCA | -0.0821 ± 0.078 | 1.71 ± 0.046 | 0.187 ± 0.091 | 1.83 ± 0.14
12 | ACCUGA | -0.424 ± 0.033 | 1.52 ± 0.032 | -0.159 ± 0.035 | 1.72 ± 0.1
13 | ACGGGA | -0.467 ± 0.019 | 1.42 ± 0.16 | -0.161 ± 0.068 | 1.58 ± 0.075
14 | UCGGCU | -0.103 ± 0.0013 | 1.77 ± 0.036 | 0.114 ± 0.004 | 1.88 ± 0.089
15 | UCGGCA | -0.241 ± 0.26 | 1.65 ± 0.02 | -0.0817 ± 0.0018 | 1.81 ± 0.12
16 | CCGCAC | -0.121 ± 0.13 | 1.6849 ± 0.0016 | 0.131 ± 0.16 | 1.85 ± 0.11
17 | UCGCCA | 0.132 ± 0.027 | 1.71 ± 0.032 | 0.335 ± 0.037 | 1.88 ± 0.073
18 | UCGCGA | -0.247 ± 0.071 | 1.668 ± 0.0022 | 0.0917 ± 0.061 | 1.8 ± 0.1

Row | Variant | FACS-Seq fitted mean (log10) (cyclic di-GMP [1]) | normalized RNA/DNA level without ligand (log10) (cyclic di-GMP [2]) | FACS-Seq fitted mean (log10) (cyclic di-GMP [3]) | normalized RNA/DNA level with ligand (log10) (cyclic di-GMP [4])
19 | ACGUUU | -0.522 ± 0.028 | 1.32 ± 0.16 | -0.336 ± 0.035 | 1.52 ± 0.078
20 | CCCGAA | -0.464 ± 0.055 | 1.39 ± 0.023 | -0.0882 ± 0.039 | 1.64 ± 0.13
21 | CCGAAA | -0.628 ± 0.032 | 1.31 ± 0.12 | -0.282 ± 0.0032 | 1.53 ± 0.1
22 | CCGAAG | -0.589 ± 0.031 | 1.31 ± 0.081 | -0.24 ± 0.0033 | 1.51 ± 0.12
23 | CCCUCC | -0.844 ± 0.018 | 1.78 ± 0.029 | -0.75619 ± 0.00069 | 1.89 ± 0.045
24 | CCCUCA | -0.416 ± 0.038 | 1.58 ± 0.039 | -0.195 ± 0.06 | 1.73 ± 0.17
25 | GCCCCA | -0.109 ± 0.025 | 1.72 ± 0.024 | 0.138 ± 0.041 | 1.86 ± 0.085
26 | GCCCCU | 0.163 ± 0.17 | 1.761 ± 0.0048 | 0.336 ± 0.019 | 1.89 ± 0.077
27 | GCGCGA | -0.455 ± 0.074 | 1.51 ± 0.12 | -0.199 ± 0.081 | 1.65 ± 0.037
28 | UCGGAG | -0.311 ± 0.011 | 1.54 ± 0.088 | 0.0865 ± 0.03 | 1.72 ± 0.08
29 | UCGGAA | -0.484 ± 0.069 | 1.34 ± 0.14 | -0.286 ± 0.048 | 1.49 ± 0.11
30 | UCGGAU | -0.57 ± 0.024 | 1.43 ± 0.097 | -0.239 ± 0.0084 | 1.68 ± 0.06
31 | ACGCGG | -0.429 ± 0.041 | 1.69 ± 0.034 | -0.107 ± 0.078 | 1.8 ± 0.13
32 | CCGAUG | -0.912 ± 0.22 | 1.09 ± 0.038 | -0.634 ± 0.095 | 1.32 ± 0.16
33 | ACGAGU | -0.508 ± 0.033 | 1.43 ± 0.14 | -0.229 ± 0.13 | 1.7 ± 0.11
34 | ACGAGA | -0.604 ± 0.02 | 1.29 ± 0.12 | -0.453 ± 0.01 | 1.45 ± 0.067
35 | CCCCUU | -0.25 ± 0.04 | 1.65 ± 0.019 | 0.125 ± 0.14 | 1.84 ± 0.12
36 | CCCCUG | -0.147 ± 0.12 | 1.69 ± 0.045 | 0.154 ± 0.1 | 1.84 ± 0.097
